Measurements published in US20200400655A1, “RATIOMETRIC BRET MEASUREMENTS OF ATP WITH A GENETICALLY-ENCODED LUMINESCENT SENSOR” (Purdue Research Foundation, priority 2019, published 2020).

Legend:
[1] = ATP dose-response of purified mScarlet-ε-NanoLuc, luminescence BRET ratio on microplate reader; format: binding; conditions: purified protein; for BRET ratio: n=3
Text: (§1) Protein Engineering and Library Screen. Sensors were constructed by Gibson Assembly using the NEB HiFi kit, sub-cloned into the pRSETB vector for expression as His-tagged protein in BL21(DE3) E. coli, and purified by nickel-affinity chromatography. CeNL/pcDNA3 was a gift from Takeharu Nagai (Addgene plasmid #85199), pcDNA3-mNeonGreen was a gift from Richard Day (Indiana University), pCytERm-mScarlet_N1 was a gift from Dorus Gadella (Addgene plasmid #85066), and pBad-HisB-RRvT (Addgene plasmid #87364) and pBad-HisB-GRvT (Addgene plasmid #87363) were gifts from Robert Campbell. The fluorescence and luminescence ATP dose-response curves for purified protein solutions were measured on a BioTek Synergy H4 multi-mode microplate reader at ambient temperature. Luminescence was also measured using a Spectral Instruments Ami HT. Plasmids generated in this study are distributed via Addgene.
The fluorescence and luminescence of purified sensor proteins were investigated in assay buffer (50 mM MOPS-KOH, 50 mM KCl, 0.5 mM MgCl2, and 0.05% Triton X-100, pH 7.3) in a 96-well plate using a BioTek Synergy H4 multi-mode microplate reader at ambient temperature. For FRET library screening, 420/50 and 485/20 nm excitation filters and 485/20, 528/20, and 620/15 nm emission filters were used. For BRET screening, 20 μM coelenterazine-h was used as a substrate of NanoLuc and 450/50, 485/20, 528/20, and 620/15 nm emission filters were used. For characterization of mScarlet-ε-NanoLuc, 20 μM coelenterazine-h was applied to a reaction solution containing the purified sensor protein and 0-10 mM ATP in assay buffer. Luminescence spectra were scanned from 400 to 650 nm. Emissions of NanoLuc and mScarlet were measured using 450/50 and 620/15 nm emission filters, respectively, and the BRET efficiency was obtained by calculating the emission ratio of mScarlet/NanoLuc. Luminescence was also measured using a Spectral Instruments Ami HT with 510/20 and 650/20 nm emission filters (binning 2×2, FOV 25 cm, f-stop 1.2). Purified mScarlet-ε-NanoLuc protein in assay buffer with 0-10 mM ATP was imaged with a 1 sec exposure time after the addition of 20 μM coelenterazine-h. For measurements at different concentrations (1-100 nM) of mScarlet-ε-NanoLuc protein, the purified protein was mixed with 10 mM ATP or 0 mM ATP and imaged after the addition of 20 μM coelenterazine-h with a 5 sec exposure time for a total 30 min. Regions of interest were drawn over each well for all filter sets, and the average radiance was determined.

[2] = Library screen: FRET and BRET dynamic range of purified sensors after addition of saturating ATP; format: binding
Text: as §1, with “Plasmids generated in this study are distributed via Addgene.” left out
(§2) The fluorescence and luminescence of purified sensor proteins were investigated in assay buffer (50 mM MOPS-KOH, 50 mM KCl, 0.5 mM MgCl2, and 0.05% Triton X-100, pH 7.3) in a 96-well plate using a BioTek Synergy H4 multi-mode microplate reader at ambient temperature. […] Luminescence spectra were scanned from 400 to 650 nm. Emissions of NanoLuc and mScarlet were measured using 450/50 and 620/15 nm emission filters, respectively, and the BRET efficiency was obtained by calculating the emission ratio of mScarlet/NanoLuc. […]

[3] = Ratiometric BRET imaging of purified mScarlet-ε-NanoLuc protein on SI Ami HT whole-animal imaging system; format: binding; conditions: protein solutions
Text: as §1, with “Plasmids generated in this study are distributed via Addgene.” left out
as §2

[4] = system: HEK293A cells; assay: Live single-cell BRET microscopy with metabolic inhibition; format: cell-based; conditions: metabolic inhibition with 10 mM 2DG and 2.5 μM oligomycin A, ambient temperature
Experimental: Live single-cell microscopy. The sensor genes were sub-cloned into the GW1 mammalian expression vector, and HEK293A cells were transfected by the calcium phosphate method. Cells were imaged with 30 second exposure times and 2 minute imaging interval on an Olympus IX83 microscope with a 40× 1.35 NA Apo oil objective, an Andor Xyla 4.2 sCMOS camera at 2-by-2 pixel binning, and 470/24 nm and 632/60 nm emission filters. Just prior to the addition of furimazine, well volume was exchanged twice with imaging media without glucose. After adding furimazine, a three point baseline was acquired. […] Cells were imaged for ˜30 minutes until luminescence decayed to background. Image backgrounds were subtracted before calculating the ratio images of the luminescence channels using ImageJ. […]
After removing the plate from the incubator, cell growth media was exchanged for imaging media (15 mM HEPES, 120 mM NaCl, 3 mM KCl, 3 mM NaHCO3, 1.25 mM NaH2PO4, 10 mM glucose, 2 mM CaCl2, 1 mM MgCl2). Imaging regions were determined using mScarlet fluorescence and DIC. […] Cells were imaged until luminescence decayed to background (20-30 minutes). Image backgrounds were subtracted (rolling ball radus 100 pixels) before calculating the ratio images of the luminescence channels using ImageJ. […] For FIG. 3, binary masks were generated using channel luminescence to remove pixels in ratio image corresponding to background. […]

[5] = system: HEK293A cells; assay: Bioluminescence imaging of adherent sensor-expressing cells in Spectral Ami, glucose vs metabolic inhibitors; format: cell-based; conditions: for mScarlet-ε-NanoLuc ratio signal: n=6
Experimental: HEK293A cells were transfected with plasmids carrying mScarlet-ε-NanoLuc by calcium phosphate method. One day after transfection, cells were passaged onto a 96-well plate at different cell densities from 1,250 to 20,000 cells per well. After an additional 24-48 hours, imaging was performed using a spectral Ami with 510/20 nm and 650/20 nm filters (5 sec exposure time, binning 2×2, FOV 25 cm, f-stop 1.2) immediately after the addition of 20 μM coelenterazine-h.
We first validated that we could measure differences in energy metabolism using adherent cell cultures. HEK293A cells expressing mScarlet-ε-NanoLuc were seeded at different densities, from 62,500 cells/cm^2 down to 4,000 cell/cm^2 to determine the sensitivity of detection in the Spectral Ami system. […] Thus, the sensor effectively detects metabolic differences in live cells in a dish within the animal imager.

[6] = Whole-animal imaging of purified sensor protein placed subcutaneously in mice; format: in vivo, Balb/c mice; conditions: 10 mM vs 0 mM ATP, subcutaneous hindlimb, unshaved mice, n=3
Experimental: (§3) Animal Imaging System. All animal procedures were performed in strict accordance with recommendations provided in the National Institutes of Health (NIH) Guide for the Care and Use of Laboratory Animals, according to protocols approved by the Purdue Animal Care and Use Committee and the Purdue University Laboratory Animal Program to minimize pain and suffering. Male and female adult Balb/c and FVB mice were sacrificed and then injected with protein solution or live cells subcutaneously in the hind limb area. NanoLuc substrate, either 20 μM coelenterazine-h or 0.5× Promega Nano-Glo furimazine solution, was mixed with the sample just prior to injection. Protein, cells, and animals were imaged at ambient temperature. […] Therefore, in this study we used the SI Ami HT equipped with a 510/20 nm and 650/20 nm emission filters for all subsequent experiments.
For imaging of purified protein in mice, mScarlet-ε-NanoLuc protein pre-equilibrated with 0 mM or 10 mM ATP was mixed with 20 μM coelenterazine-h. The reaction mixture was enclosed in a custom plastic tube and placed subcutaneously in the left (0 mM ATP) and right (10 mM ATP) hindlimb areas of adult Balb/c mice carcass. The sequential imaging was immediately performed using a spectral Ami with 510/20 and 650/20 nm filters (30 sec exposure time, binning 2×2, FOV 25, f-stop 1.2). […]

[7] = system: HEK293A cells; assay: Whole-animal imaging of sensor-expressing live cell suspensions injected subcutaneously in mice; format: in vivo; conditions: 10^6 live cells subcutaneous, unshaved adult FVB mice, n=6
Experimental: as §3
For imaging of purified protein in mice, mScarlet-ε-NanoLuc protein pre-equilibrated with 0 mM or 10 mM ATP was mixed with 20 μM coelenterazine-h. […]
We next carried out ratiometric imaging of live cells injected in whole animals. […] The total luminescence intensity provides an indicator of the total protein expression level, and critically we observed that the BRET ratio was dependent on the metabolic condition only and was independent of the level of luminescence intensity (FIG. 5).

B1: mScarlet-ε-NanoLuc: BRET-only ATP sensor: mScarlet (N-terminus), B. subtilis ε subunit, NanoLuc (C-terminus); SEQ ID NO:1 (protein)
chain: MVSKGEAVIKEFMRFKVHMEGSMNGHEFEIEGEGEGRPYEGTQTAKLKVTKGGPLPFSWDILSPQFMYGSRAFTKHPADIPDYYKQSFPEGFKWERVMNFEDGGAVTVTQDTSLEDGTLIYKVKLRGTNFPPDGPVMQKKTMGWEASTERLYPEDGVLKGDIKMALRLKDGGRYLADFKTTYKAKKPVQMPGAYNVDRKLDITSHNEDYTVVEQYERSEGRHSTGRHIDMKTVKVNITTPDGPVYDADIEMVSVRAESGDLGILPGHIPTKAPLKIGAVRLKKDGQTEMVAVSGGTVEVRPDHVTINAQAAETAEGIDKERAEAARQRAQERLNSQSDDTDIRRAELALQRALNRLDVAGKANEFMLEDFVGDWRQTAGYNLDQVLEQGGVSSLFQNLGVSVTPIQRIVLSGENGLKIDIHVIIPYEGLSGDQMGQIEKIFKVVYPVDDHHFKVILHYGTLVIDGVTPNMIDYFGRPYEGIAVFDGKKITVTGTLWNGNKIIDERLINPDGSLLFRVTINGVTGWRLCERILA
modifications: mScarlet-e-NanoLuc
BRET ratio ([1]; 0 mM ATP): 0.0063±0.0001
BRET ratio ([1]; 10 mM ATP): 0.0324±0.009
BRET ratio stability over time during luminescence intensity decay [1]: stable over time
maximal change in BRET ratio upon ATP saturation [1]: greater than 4 fold
Fold-Change in Ratio BRET ([2]; after addition of saturating ATP, purified protein, 20 μM coelenterazine-h): 5.12 ± 0.18
change in the BRET ratio upon saturation with ATP ([2]; purified sensor, zero to saturating ATP): 5 fold
dynamic range in ATP dose response [3]: 5 fold
change in the absolute BRET ratio [4]: −71%
difference in ratio signal, glucose vs metabolic inhibitors [5]: ~3 fold
mScarlet-ε-NanoLuc ratio signal ([5]; addition of glucose): 0.29±0.04
mScarlet-ε-NanoLuc ratio signal ([5]; metabolic inhibitors 2DG and oligomycin A): 0.11±0.01
difference in the ratio with vs without ATP imaged through tissue and fur [6]: greater than 3 fold
ratio difference between glucose and inhibitor-treated cells through tissue and fur, compared with cell suspensions in a dish [7]: same ratio difference
